Measured values from paper PMC11982570 (Scientific Reports, 2025).

B1: 103.2 mAb (antibody, V domains shown)
VH: QVQLQQSGAEVVRPGTSVKVSCKASGYAFTSYLIHWIKQRPGQGLEWIGVINPRSGDSHYNEKFKDRTTLTADQSSSTAYMQLSSLTSDDSAVYFCARSDYGAYWGQGTLVTVSA
VL: DIVLTQSPVTLSVTPGDSVSLSCRASQSISNNLHWYRQKSHESPRLLIKYASQSIFGIPSRFSGSGSGTEFTLSINSVETEDFGIYFCQQSNSWPHTFGTGTKLELK
B2: 103.2^5 mAb hinge variant (antibody, V domains shown)
VH: B1 VH
VL: B1 VL
B3: 103.2^10 mAb hinge variant (antibody, V domains shown)
VH: B1 VH
VL: B1 VL
B4: 103.2^30 mAb hinge variant (antibody, V domains shown)
VH: B1 VH
VL: B1 VL
B5: 103.2^15 mAb hinge variant (antibody, V domains shown)
VH: B1 VH
VL: B1 VL

Target: Biotinylated BTN3A1 ectodomain + avitag (Homo sapiens, UniProt O00481, biotin on the C-terminal BirA biotinylation sequence)
Assay: BLI

Biotinylated BTN3A1 ectodomain + avitag, sequence (O00481 whole entry, looked up, the tested form may be a part): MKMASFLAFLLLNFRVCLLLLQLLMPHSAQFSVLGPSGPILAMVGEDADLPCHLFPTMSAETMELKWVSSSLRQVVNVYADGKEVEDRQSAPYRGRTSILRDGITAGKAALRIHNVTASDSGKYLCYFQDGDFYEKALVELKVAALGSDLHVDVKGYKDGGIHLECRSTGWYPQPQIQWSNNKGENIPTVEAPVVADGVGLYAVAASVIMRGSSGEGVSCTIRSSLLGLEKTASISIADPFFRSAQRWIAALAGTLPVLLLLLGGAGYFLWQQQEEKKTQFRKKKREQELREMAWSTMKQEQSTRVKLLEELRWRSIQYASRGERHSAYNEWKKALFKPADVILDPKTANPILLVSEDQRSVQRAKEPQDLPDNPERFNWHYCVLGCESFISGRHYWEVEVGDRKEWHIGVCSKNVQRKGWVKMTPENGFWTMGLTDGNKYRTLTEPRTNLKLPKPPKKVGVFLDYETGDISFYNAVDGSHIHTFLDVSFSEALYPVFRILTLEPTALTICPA

| binding result | Binder |
| --- | --- |
| binds | B1 |
| binds | B2 |
| binds | B3 |
| binds | B4 |
| binds | B5 |
